This experiment concerns the target FITC-SgbA(leader) (Streptomyces globisporus sp. NRRL B-2293). Nature of the experiment: fluorescence polarisation. For orientation: Fluorescence polarisation rises when a labelled molecule tumbles more slowly, as on binding a larger partner.
“His6-SgbL(lyase-kinase 1–548) E270A (domain or fragment)”: the Kd (usually the constant that tells how readily two partners part at equilibrium) came to 1720 nM. This lies in the single-digit micromolar range.

In turn, “His6-SgbL(lyase-kinase 1–548) D351A (domain or fragment)” returned a Kd of 576 nM.

Take “His6-SgbL(lyase-kinase 1–548) (domain or fragment)”: the Kd came to 251 nM.

The substance “His6-MBP-SgbL(208–318) (domain or fragment)” came in with a Kd of 31000 nM.

Substance “His6-SgbL(lyase-kinase 1–548) D369A (domain or fragment)” displayed a Kd of 353 nM.

In turn, “His6-SgbL(lyase-kinase 1–548) K248A (domain or fragment)” displayed a Kd of 7110 nM.

As to “His6-SgbL(lyase-kinase 1–548) N356A (domain or fragment)”, the Kd is 321 nM.

(Values after publication PMC6642009.)
